This note sets out measurements from patent US20230348614A1 (VISTERRA, published 2023).

Numbering of substitutions follows the chain as printed.

For one test, the target named is T1, E111A (Homo sapiens, UniProt P18827).
T1 construct: clone of the alanine scanning library on HEK-293T cells; m17 with one substitution; also called CD138 E111A
T1 sequence (CD138 (SDC1), full length, point mutant, looked up): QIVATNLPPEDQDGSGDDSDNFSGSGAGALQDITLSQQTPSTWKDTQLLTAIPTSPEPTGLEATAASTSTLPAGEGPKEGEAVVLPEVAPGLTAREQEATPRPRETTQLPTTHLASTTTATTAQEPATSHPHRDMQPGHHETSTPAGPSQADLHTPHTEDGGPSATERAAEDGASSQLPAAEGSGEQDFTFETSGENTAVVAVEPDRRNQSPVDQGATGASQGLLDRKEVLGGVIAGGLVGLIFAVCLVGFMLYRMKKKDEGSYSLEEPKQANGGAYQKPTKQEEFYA
As to the kind of experiment: alanine scan: flow cytometry on HEK-293T cells expressing the mutant clone, 4320 Fab 0.50 ug/mL, normalised to WT CD138; Range %WT Binding 8; Normalized 4320 vs. BB4 10.4. The procedure: (§1) Serial dilutions of each MAb were tested for immunoreactivity against cells expressing target protein (WT) or vector alone. Validation of target expression and optimization of detection and binding of anti-CD138 antibodies both by flow cytometry was completed in replicate (N=4). The optimal screening concentration for each MAb was determined based on the raw signal values and signal-to-background calculations specifically optimized for each test article. Optimized parameters included the use of 10% goat serum as blocking reagent. Primary antibody staining was for 60 minutes at 25° C. Wash buffer include phosphate buffered saline (divalent metal ion free), pH 7.4. […] Secondary antibodies were diluted 1:400 and incubated for 30 minutes at 25° C.
(§2) Library screens of very-high-affinity mAbs can fail to yield critical residues for antibody binding due to deficiencies of such an assay to detect and differentiate critical vs. less critical binding based on affinity and quantification of cell binding. One common approach in the literature is the use of monovalent antibody derived fragments such as Fab usually weakens binding sufficiently to allow identification of critical residues for binding. […] Binding of each test Ab to each mutant clone in the alanine scanning library was determined, in duplicate, and likewise evaluated by flow cytometry.

In a further test the target is T2, T143A (Homo sapiens, UniProt P18827).
T2 construct: clone of the alanine scanning library on HEK-293T cells; m17 with one substitution; also called CD138 T143A
T2 sequence (CD138 (SDC1), full length, point mutant, looked up): T1 sequence (CD138 (SDC1), full length, point mutant, looked up) with A89E, T121A
As to the kind of experiment: alanine scan: flow cytometry on HEK-293T cells expressing the mutant clone, 4320 Fab 0.50 ug/mL, normalised to WT CD138; Range %WT Binding 6; Normalized 4320 vs. BB4 53.2. The procedure: as §1, §2

Another test addresses T3, G184A (Homo sapiens, UniProt P18827).
T3 construct: clone of the alanine scanning library on HEK-293T cells; m17 with one substitution; also called CD138 G184A
T3 sequence (CD138 (SDC1), full length, point mutant, looked up): T1 sequence (CD138 (SDC1), full length, point mutant, looked up) with A89E, G162A
As to the kind of experiment: alanine scan: flow cytometry on HEK-293T cells expressing the mutant clone, 4320 Fab 0.50 ug/mL, normalised to WT CD138; Range %WT Binding 17; Normalized 4320 vs. BB4 60.6. How it is done:
as §1, §2

The next test concerns the target S151A (Homo sapiens) (UniProt P18827). As to the kind of experiment: alanine scan: flow cytometry on HEK-293T cells expressing the mutant clone, 4320 Fab 0.50 ug/mL, normalised to WT CD138; Range %WT Binding 6; Normalized 4320 vs. BB4 24.5.
A further test has as its target T4, G169A (Homo sapiens, UniProt P18827).
T4 construct: clone of the alanine scanning library on HEK-293T cells; m17 with one substitution; also called CD138 G169A
T4 sequence (CD138 (SDC1), full length, point mutant, looked up): T1 sequence (CD138 (SDC1), full length, point mutant, looked up) with A89E, G147A
As to the kind of experiment: alanine scan: flow cytometry on HEK-293T cells expressing the mutant clone, 4320 Fab 0.50 ug/mL, normalised to WT CD138; Range %WT Binding 2; Normalized 4320 vs. BB4 44.4. How it is done:
as §1, §2

The target in another test is T5, G238A (Homo sapiens, UniProt P18827).
T5 construct: clone of the alanine scanning library on HEK-293T cells; m17 with one substitution; also called CD138 G238A
T5 sequence (CD138 (SDC1), full length, point mutant, looked up): T1 sequence (CD138 (SDC1), full length, point mutant, looked up) with A89E, G216A
As to the kind of experiment: alanine scan: flow cytometry on HEK-293T cells expressing the mutant clone, 4320 Fab 0.50 ug/mL, normalised to WT CD138; Range %WT Binding 9; Normalized 4320 vs. BB4 30.2. The procedure: as §1, §2

B1: Fab fragment of mAb 4320 (Fab, V domains shown)
VH: QVQLVQSGAEVKKPGASVKVSCKASGYSFSSYYMHWVRQAPGQGLEWMGTIHPSDSTTNYNQKFQGRVTMTVDTSTRTAYMELSSLRSEDTAVYYCANFVYWGQGTTVTVSS
VL: DIVMTQTPLSLSVTPGQPASISCKSSKSLLYKDGKTYLNWFLQKPGQSPQLLIYVVSTRASGVPDRFSGSGSGTDFTLKISRVEAEDVGVYYCQQLVEYPYTFGQGTKLEIKR
modifications: N-terminal Q1 observed as pyroglutamic acid (PCA) in the 138-2-5 complex
notes: In the crystal structures heavy chain residues 1-213 were traced; also called Fab4320
In the case of B1, the “Mean %WT Binding” value came to 13 %WT with E111A; 30.8 %WT with T143A; 60.1 %WT with G184A; 8.9 %WT in the test with S151A (Homo sapiens); 13.2 %WT with G169A; 28.3 %WT with G238A.
